Results on 3 molecules are retold here after PMC9001736 (2022).

Assay [1] deals with T1, REEE peptide (mimetic of the Nt-R cargo degradation signal).
T1 peptide: REEE

In assay [2] the target is T2, ZZ domain of HERC2 (HERC2ZZ, aa 2702–2755 with additional tryptophan at the C-terminus) (human, UniProt O95714 2702-2755).
T2 chain: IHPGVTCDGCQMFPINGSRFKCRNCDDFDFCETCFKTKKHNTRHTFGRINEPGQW
The experiment in a line: value cited from earlier reference.

Assay [3] concerns the target T3, ZZ domain of p300 (p300ZZ) (human).
T3 chain: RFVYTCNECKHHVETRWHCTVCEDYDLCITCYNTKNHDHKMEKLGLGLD
The experiment in a line: value cited from earlier reference.

B1: p62 ZZ (protein)
chain: not shown
Take B1: the Kd (in general, the equilibrium constant for the complex coming apart) in assay [1] was 1.9 µM.
As for ARTKQTARKSTG, binding in assay [2] was characterised by a dissociation constant (Kd) of 15 µM. This lies in the double-digit micromolar range.

B2: histone H3_(1–12) peptide (aa 1–12 of H3) (peptide)
peptide: ARTKQTARKSTG
modifications: zinc-bound (2 Zn2+ expected for a ZZ finger); limits from the UniProt ZZ-type feature, construct limits not given
Molecule B2 had a dissociation constant Kd in assay [3] of 8.8 µM.
